Results taken from article PMC8091981 (Genes & Development, 2021).

Molecular target: T1, Spt6-YW-FLAG (Y255A, W257A) (S. cerevisiae, UniProt P23615 1-1451, Y255A | W257A)
T1 sequence (looked up): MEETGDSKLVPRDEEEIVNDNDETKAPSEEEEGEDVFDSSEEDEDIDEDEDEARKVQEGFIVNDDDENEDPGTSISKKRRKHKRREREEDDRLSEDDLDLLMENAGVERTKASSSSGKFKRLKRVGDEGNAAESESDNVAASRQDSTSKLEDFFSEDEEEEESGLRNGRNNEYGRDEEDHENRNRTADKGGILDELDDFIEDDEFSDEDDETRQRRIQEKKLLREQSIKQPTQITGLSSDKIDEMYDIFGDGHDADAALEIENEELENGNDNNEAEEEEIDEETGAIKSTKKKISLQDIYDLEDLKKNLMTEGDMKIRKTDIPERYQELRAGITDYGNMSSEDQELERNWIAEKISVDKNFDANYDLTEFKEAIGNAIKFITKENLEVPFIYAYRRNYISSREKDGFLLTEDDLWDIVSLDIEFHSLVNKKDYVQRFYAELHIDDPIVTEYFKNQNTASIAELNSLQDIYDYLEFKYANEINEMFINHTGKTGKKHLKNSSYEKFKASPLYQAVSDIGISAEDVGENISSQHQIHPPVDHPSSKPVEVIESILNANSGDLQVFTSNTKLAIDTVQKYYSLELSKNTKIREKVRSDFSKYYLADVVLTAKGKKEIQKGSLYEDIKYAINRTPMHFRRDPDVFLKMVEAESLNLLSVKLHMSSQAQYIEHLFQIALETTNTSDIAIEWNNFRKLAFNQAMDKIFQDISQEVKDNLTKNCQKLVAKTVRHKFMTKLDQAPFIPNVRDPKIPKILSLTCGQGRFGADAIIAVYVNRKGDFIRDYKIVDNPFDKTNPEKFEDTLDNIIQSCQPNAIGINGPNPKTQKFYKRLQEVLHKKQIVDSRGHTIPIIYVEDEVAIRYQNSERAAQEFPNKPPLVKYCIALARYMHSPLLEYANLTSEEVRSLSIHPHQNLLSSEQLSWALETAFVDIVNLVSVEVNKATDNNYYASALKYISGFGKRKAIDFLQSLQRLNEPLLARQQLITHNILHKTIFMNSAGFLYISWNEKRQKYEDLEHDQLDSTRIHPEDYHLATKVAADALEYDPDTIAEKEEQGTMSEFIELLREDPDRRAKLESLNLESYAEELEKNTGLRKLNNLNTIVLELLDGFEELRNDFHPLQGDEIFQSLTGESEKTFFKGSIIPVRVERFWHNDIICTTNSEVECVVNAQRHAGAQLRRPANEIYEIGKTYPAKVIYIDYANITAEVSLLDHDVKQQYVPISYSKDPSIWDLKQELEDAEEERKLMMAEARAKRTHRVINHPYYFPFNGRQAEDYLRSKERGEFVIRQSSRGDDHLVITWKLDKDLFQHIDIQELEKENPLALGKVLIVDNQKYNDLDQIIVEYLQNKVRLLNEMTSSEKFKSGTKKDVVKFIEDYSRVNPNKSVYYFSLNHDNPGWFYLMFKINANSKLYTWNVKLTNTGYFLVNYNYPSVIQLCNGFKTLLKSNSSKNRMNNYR
Test: co-IP

fold decrease of co-IP against wild-type Spt6-FLAG: 20 fold
B1: Spn1 (natural protein, S. cerevisiae, UniProt Q06505 1-410, looked up)
chain: MSTADQEQPKVVEATPEDGTASSQKSTINAENENTKQNQSMEPQETSKGTSNDTKDPDNGEKNEEAAIDENSNVEAAERKRKHISTDFSDDDLEKEEHNDQSLQPTVENRASKDRDSSATPSSRQELEEKLDRILKKPKVRRTRRDEDDLEQYLDEKILRLKDEMNIAAQLDIDTLNKRIETGDTSLIAMQKVKLLPKVVSVLSKANLADTILDNNLLQSVRIWLEPLPDGSLPSFEIQKSLFAALNDLPVKTEHLKESGLGRVVIFYTKSKRVEAQLARLAEKLIAEWTRPIIGASDNYRDKRIMQLEFDSEKLRKKSVMDSAKNRKKKSKSGEDPTSRGSSVQTLYEQAAARRNRAAAPAQTTTDYKYAPVSNLSAVPTNARAVGVGSTLNNSEMYKRLTSRLNKKHK
